We go through 1 molecule from article PMC11170971 (2024).

For assay [1], the target named is T1, zTLR4ba extracellular domain, purified recombinant (zebrafish).
T1 chain: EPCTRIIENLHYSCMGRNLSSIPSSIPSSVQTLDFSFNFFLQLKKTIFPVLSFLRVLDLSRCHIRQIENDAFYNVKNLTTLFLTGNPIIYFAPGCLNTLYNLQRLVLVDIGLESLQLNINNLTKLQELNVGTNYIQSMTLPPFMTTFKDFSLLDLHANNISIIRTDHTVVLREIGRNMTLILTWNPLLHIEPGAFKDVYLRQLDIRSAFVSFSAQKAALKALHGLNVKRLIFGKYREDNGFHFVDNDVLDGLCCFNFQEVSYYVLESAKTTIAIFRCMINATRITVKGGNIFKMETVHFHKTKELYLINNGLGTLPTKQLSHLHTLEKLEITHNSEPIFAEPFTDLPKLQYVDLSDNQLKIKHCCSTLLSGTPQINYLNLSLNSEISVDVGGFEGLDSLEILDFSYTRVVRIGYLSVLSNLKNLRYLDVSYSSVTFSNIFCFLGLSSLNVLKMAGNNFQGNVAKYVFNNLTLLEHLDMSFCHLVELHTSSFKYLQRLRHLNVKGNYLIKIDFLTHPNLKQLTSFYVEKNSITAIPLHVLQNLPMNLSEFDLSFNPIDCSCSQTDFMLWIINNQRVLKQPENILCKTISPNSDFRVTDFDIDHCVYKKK
Put plainly: MST.

The target of assay [2] is hTLR2 extracellular domain, purified recombinant (human, UniProt O60603 21-588). Put plainly: MST.
hTLR2 extracellular domain, purified recombinant, sequence (O60603 21-588): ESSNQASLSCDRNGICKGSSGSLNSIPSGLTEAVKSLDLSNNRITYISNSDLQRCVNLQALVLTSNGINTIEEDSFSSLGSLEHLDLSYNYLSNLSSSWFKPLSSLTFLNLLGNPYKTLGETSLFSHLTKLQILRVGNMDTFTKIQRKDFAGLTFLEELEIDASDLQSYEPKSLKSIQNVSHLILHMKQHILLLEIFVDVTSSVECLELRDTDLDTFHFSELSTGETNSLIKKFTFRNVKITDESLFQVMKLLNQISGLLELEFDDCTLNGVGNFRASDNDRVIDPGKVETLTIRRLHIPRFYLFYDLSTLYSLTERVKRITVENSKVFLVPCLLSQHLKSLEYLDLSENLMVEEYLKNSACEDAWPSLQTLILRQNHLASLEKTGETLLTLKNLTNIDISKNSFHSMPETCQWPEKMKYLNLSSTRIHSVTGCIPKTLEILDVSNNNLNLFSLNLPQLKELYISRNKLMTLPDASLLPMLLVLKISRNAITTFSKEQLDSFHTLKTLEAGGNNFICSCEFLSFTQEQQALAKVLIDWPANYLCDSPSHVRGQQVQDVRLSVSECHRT

B1: recombinant His-tagged SpaC protein (SpaC pilin subunit of Lactobacillus rhamnosus GG) (natural protein)
chain: MTAKVARTGHLFAVLLILMSMLTGLVTSGSSVVTATDNIRPTYQTDANGTYPTNSWQVTGQQNVINQRGGDQVSGWDNNTIWNGDATDTTNSYLKFGDPNNPDYQIRKYAKETNTPGLYDVYLNVKGNKQQNVKPVDIVLVVDMSGSMESNRWGTNRAGAVRTGVKNFLTSIQNAGLGNYVNVGLIGFSSPGYIGGKSGYISVKLGKAGNASQQQAINGALSPRFQGGTYTQIGLRQGSAMLNADTSGNKKMMILLTDGVPTFSNEVINSEWINGTLYGTNFGSSRDEPGNTARLRWPYTDSSGHYIYDTWPATLGEAKIAKDSGNEVHALGIQLADDDHYMTKEKIRQNMQLITNSPDLYEDADSADAVEAYLNNQAKDIIKNFNTVTDGTITDPIGTQFQYANNQATVTSVGKQTVPASELPSAAIQDGQLTVNHMNLGQDQEVQIHYQVRIKTEDAGFKPDFWYQMNGETLLTPKAGAAAVDFGIPSGRAPATTVYVQKQWRQLSNQSLPDTLNVTVQRKVADGSLDPNWQQTLVLKKADNWKASFTAPAYNNQGQSFSYVVKSEDASGIDLSSFISSQNMDQQTATLTLTNQQYGFQFQKKTTDGTDLSADQLKAMQFNLTQYSDNSFQQASKTNAITSTDLQALAPGYYGIQEAAAPTGYQLDGTTYLFQLTSDGQWQYHGTKDNVTSGSVINGQQTLNPVGDKSDDFTVTGDHQQILTLTKYDEPKPSMTLRVIKQDNQSQYLAGAAFTLQPSAGEAETITSSATSEGQAFATKLVADGTYTMSETKAPDGYQSNPAKIAIQVATTGKEATVTIDGEALKPGESKNGYTLAIDGSTITLQAINQPLAILPHTGGQGYQRLLGIALGLISAAFLLLLVVLIKRRVVKQHD
modifications: labelled with Monolith Protein Labeling Kit Red-NHS (in the MST only)
On to B1, for which the Kd (commonly the equilibrium constant for the complex coming apart) in assay [1] was determined as 2980 nM; in assay [2], 190 nM.
